These results are taken from article PMC5640651, “Interfering with the high-affinity interaction between wheat amylase trypsin inhibitor CM3 and toll-like receptor 4: in silico and biosensor-based studies” (Scientific Reports, 2017).

A word on the Kd: it is the concentration at which binding is half-saturated. Usually stoichiometry N stands for the number of molecules, sites or subunits per partner or assembly. As usually defined, the koff is the rate constant with which the complex falls apart. The term kon denotes the rate constant with which the complex forms.

Common to all, as to details: both partners purified
Assay [1] concerns the target T1, human toll-like receptor 4, His-tagged (human, UniProt O00206 24-631).
T1 construct: toll-like receptor 4, human; called the extracellular domain of TLR4 in the results; described as a 100 kDa protein with isoelectric point 5.88; Coupled covalently to the carboxylate cuvette by EDC/NHS 'via the N-terminus of the poly-His tail'; also called TLR4; TLR4-His; source: pEF-BOS TLR4 plasmid, transfected in HCT-116 cell line (author contributions)
Briefly: SPR; IAsys plus evanescent wave/resonant mirror biosensor (the paper calls it surface plasmon resonance); TLR4-His covalently immobilised on carboxylate cuvette; 37 °C; PBS pH 7.4 with 140 mM NaCl; mono-exponential fits.

Assay [2] concerns the target T1, human toll-like receptor 4, His-tagged. Briefly: SPR; IAsys plus resonant mirror biosensor; TLR4-His immobilised; 37 °C; 20 mM PBS, no NaCl. On the technique in general: In SPR one partner is held on a chip, and binding of the other changes the refractive index at the surface.
Assay [3] has the same target. Briefly: SPR; IAsys plus resonant mirror biosensor; TLR4-His immobilised; 37 °C; 20 mM PBS, 50 mM NaCl.
Assay [4] has the same target. Briefly: SPR; IAsys plus resonant mirror biosensor; TLR4-His immobilised; 37 °C; 20 mM PBS, 25 mM NaCl.
The target is the same in assay [5]. Briefly: SPR; IAsys plus evanescent wave/resonant mirror biosensor (the paper calls it surface plasmon resonance); TLR4-His covalently immobilised on carboxylate cuvette; 37 °C; PBS pH 7.4 with 140 mM NaCl; mono-exponential fits. The source holds these as a separate data set.
Assay [6] has the same target. The assay is described as above. This is another data set of the same source.

T1 sequence (O00206 24-631): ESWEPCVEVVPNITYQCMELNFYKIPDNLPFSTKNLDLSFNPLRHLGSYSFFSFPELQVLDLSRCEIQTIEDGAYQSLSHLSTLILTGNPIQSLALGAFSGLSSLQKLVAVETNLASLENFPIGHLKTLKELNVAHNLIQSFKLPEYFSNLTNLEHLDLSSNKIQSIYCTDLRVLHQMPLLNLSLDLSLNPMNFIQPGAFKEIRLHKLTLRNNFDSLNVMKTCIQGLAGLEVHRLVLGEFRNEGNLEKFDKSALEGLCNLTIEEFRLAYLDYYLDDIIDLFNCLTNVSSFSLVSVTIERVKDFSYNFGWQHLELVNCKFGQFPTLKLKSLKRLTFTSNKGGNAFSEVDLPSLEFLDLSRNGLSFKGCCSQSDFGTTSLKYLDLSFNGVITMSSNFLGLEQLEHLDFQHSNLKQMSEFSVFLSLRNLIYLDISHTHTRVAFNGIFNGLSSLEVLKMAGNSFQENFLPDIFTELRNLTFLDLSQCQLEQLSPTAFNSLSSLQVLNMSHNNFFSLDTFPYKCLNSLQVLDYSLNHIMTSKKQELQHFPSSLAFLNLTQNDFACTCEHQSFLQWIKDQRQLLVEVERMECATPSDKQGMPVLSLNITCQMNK

B1: wheat amylase trypsin inhibitor CM3 (natural protein, UniProt P17314 26-168, looked up)
chain: SGSCVPGVAFRTNLLPHCRDYVLQQTCGTFTPGSKLPEWMTSASIYSPGKPYLAKLYCCQELAEISQQCRCEALRYFIALPVPSQPVDPRSGNVGESGLIDLPGCPREMQWDFVRLLVAPGQCNLATIHNVRYCPAVEQPLWI
notes: also called ATI; wheat ATI CM3
As for B1, the Kd in assay [1] amounted to 0.036 µM; in assay [2] it was 0.0023 µM; in assay [3], 0.018 µM; in assay [4], 0.01 µM; in assay [5] it was 0.061 µM. For the same molecule, the “stoichiometry N” value in assay [1] was found to be 1. For the same molecule, the dissociation rate constant (koff) in assay [2] was found to be 0.0001 s⁻¹; in assay [3] it was 0.0007 s⁻¹; in assay [4] it was 0.0004 s⁻¹; in assay [5] it was 0.0025 s⁻¹. Moreover, the kon in assay [2] was 43000 M⁻¹ s⁻¹; in assay [3], 40000 M⁻¹ s⁻¹; in assay [4] it was 39000 M⁻¹ s⁻¹; in assay [5], 41000 M⁻¹ s⁻¹.

B2: RSGNVGESGLI oligopeptide derived from wheat ATI CM3 (peptide)
peptide: RSGNVGESGLI
notes: stretch of wheat ATI CM3; also called straight peptide; StrP; source: synthetic peptide
In the case of B2, the “stoichiometry N” value in assay [1] came to 1. Also, in assay [6], the Kd was found to be 1.4 µM, the koff stood at 0.005 s⁻¹ and the on-rate (kon) was 3620 M⁻¹ s⁻¹.
